We go through 3 molecules from patent US20240180982A1 (published 2024).

For orientation: Kd means a measure of binding affinity in units of concentration.

The target in test [1] is Recombinant Human CXADR Fc Chimera Protein (CAR; R&D Systems, 3336-CX-050) (human) (UniProt P78310). As to the kind of experiment: SPR (BIAcore 3000), receptor amine coupled to CM5 chip, knob as analyte. (In general: Surface plasmon resonance follows binding to a sensor surface in real time, without labels.)
The target of test [2] is Recombinant Human Desmoglein-2 Fc Chimera Protein (R&D Systems, 947-DM-100) (human) (UniProt Q14126). The test is described as follows: SPR.
The target of test [3] is CAR on CHO-CAR cells (human) (UniProt P78310).
Chain of CAR on CHO-CAR cells (human) (P78310 20-365): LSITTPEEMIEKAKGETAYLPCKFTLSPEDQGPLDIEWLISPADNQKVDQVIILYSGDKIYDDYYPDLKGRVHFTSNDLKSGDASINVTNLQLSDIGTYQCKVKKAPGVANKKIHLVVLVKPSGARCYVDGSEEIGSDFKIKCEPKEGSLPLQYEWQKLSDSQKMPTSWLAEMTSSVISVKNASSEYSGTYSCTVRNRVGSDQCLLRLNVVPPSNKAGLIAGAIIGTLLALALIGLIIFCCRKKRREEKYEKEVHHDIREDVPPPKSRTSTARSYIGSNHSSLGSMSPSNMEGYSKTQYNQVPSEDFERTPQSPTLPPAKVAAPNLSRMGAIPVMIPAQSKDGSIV
Test [4] addresses Recombinant Human Desmoglein-2 Fc Chimera Protein (R&D Systems, 947-DM-100) (human) (UniProt Q14126). The test is described as follows: SPR (BIAcore 3000), receptor amine coupled to CM5 chip, knob as analyte, equilibrium fit.
Test [5] concerns the target Recombinant Human CD46 Protein (His Tag) (Sino biological, 12239-H08H) (human) (UniProt P15529). The test is described as above.
The target of test [6] is T1, Recombinant Human CD46 Protein (His Tag) (Sino biological, 12239-H08H) (human, UniProt P15529 35-328).
T1 chain: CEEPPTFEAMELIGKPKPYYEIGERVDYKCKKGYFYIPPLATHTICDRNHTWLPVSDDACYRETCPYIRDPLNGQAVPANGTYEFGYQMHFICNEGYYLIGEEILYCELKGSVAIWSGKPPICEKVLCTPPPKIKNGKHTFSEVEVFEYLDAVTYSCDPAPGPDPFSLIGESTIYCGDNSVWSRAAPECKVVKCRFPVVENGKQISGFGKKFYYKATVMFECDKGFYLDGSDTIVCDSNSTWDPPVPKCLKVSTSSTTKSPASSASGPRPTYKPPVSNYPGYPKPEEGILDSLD
The test is described as follows: SPR.

Test [7] deals with T2, Recombinant Human Desmoglein-2 Fc Chimera Protein (R&D Systems, 947-DM-100) (human, UniProt Q14126 50-609).
T2 chain: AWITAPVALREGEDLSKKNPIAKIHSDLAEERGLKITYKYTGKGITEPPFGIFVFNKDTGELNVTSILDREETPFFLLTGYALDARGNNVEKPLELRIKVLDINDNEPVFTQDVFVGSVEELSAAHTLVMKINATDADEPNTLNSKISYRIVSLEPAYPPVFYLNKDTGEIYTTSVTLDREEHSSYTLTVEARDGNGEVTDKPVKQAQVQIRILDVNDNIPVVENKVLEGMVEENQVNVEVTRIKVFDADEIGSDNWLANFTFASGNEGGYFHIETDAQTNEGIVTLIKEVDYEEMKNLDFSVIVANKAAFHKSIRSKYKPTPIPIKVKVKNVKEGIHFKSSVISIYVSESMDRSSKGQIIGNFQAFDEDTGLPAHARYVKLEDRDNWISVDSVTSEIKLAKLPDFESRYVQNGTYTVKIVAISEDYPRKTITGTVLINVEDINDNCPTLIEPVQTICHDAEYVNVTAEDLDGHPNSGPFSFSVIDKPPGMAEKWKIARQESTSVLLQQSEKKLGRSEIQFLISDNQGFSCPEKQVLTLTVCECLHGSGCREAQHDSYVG
The test is described as follows: SPR.

Chain of Recombinant Human CXADR Fc Chimera Protein (CAR; R&D Systems, 3336-CX-050) (human) (P78310 20-237, change not shown): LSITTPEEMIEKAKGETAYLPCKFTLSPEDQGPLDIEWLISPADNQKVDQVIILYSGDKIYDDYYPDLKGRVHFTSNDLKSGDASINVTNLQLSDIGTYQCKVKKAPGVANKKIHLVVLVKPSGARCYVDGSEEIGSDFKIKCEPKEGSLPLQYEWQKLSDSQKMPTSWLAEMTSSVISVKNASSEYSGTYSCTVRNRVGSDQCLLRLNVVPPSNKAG

As to “Recombinant HAdV-C5 fiber knob protein (from UniProt P11818 387-581)”, the equilibrium dissociation constant (Kd) turned out to be 0.00076 µM in test [1] and 125 µM in test [2].
Recombinant HAdV-D10 fiber knob protein: the Kd was determined as 0.44 µM in test [1], 125 µM in test [4] and 20 µM in test [5]. This molecule also yielded a fold lower affinity than HAdV-C5 (by IC50 values) in test [3] of 16.5 fold.

B1: HAdV-B3k (other)
chain: TFDSSNSIALKNNTLWTGPKPEANCIIEYGKQNPDSKLTLILVKNGGIVNGYVTLMGASDYVNTLFKNKNVSINVELYFDATGHILPDSSSLKTDLELKYKQTADFSARGFMPSTTAYPFVLPNAGTHNENYIFGQCYYKASDGALFPLEVTVMLNKRLPDSRTSYVMTFLWSLNAGLAPETTQATLITSPFTFSYIREDD
Turning to B1, the Kd worked out at 0.16 µM in test [6] and 66.9 µM in test [7].
